{
  "source": "patent US20070036810A1",
  "about": "“Cyclic amp response element activator proteins and uses related thereto” (priority 2003, published 2007)",
  "key": {"[1]": {"tested_on": "GAL4 DNA binding sites (UAS-Luc, pFR-Luc reporter)", "test": "GAL4 DNA binding domain fusion transactivation assay (pFR-Luc) in HEK 293 cells", "assay_type": "cell-based", "conditions": "normalized to pCMV-BD vector", "source_text": "To determine if CREAP proteins can act as a transcription activators, various regions of all 3 CREAP homologs (amino acids 300-650 of CREAP1, amino acids 296-694 of CREAP2 and amino acids 335-635 of CREAP3) were expressed as fusion proteins with the DNA binding domain of GAL4 and tested for the ability to activate expression of a reporter gene linked to GAL4 protein binding sequences (UAS-Luc (pFR-Luc reporter). Briefly, the indicated regions of CREAP1, CREAP2 and CREAP3 were amplified by PCR and subcloned in frame into pCMV-BD vector (Stratagene) encoding GAL4 DNA binding domain. Selected plasmids and empty vector (pCMV-SPORT6) were transfected into HEK 293 cells at 75 ng/well using Fugene6 transfection reagent (Roche) as described above. pFR-Luc reporter (Stratagene) encoding firefly luciferase gene driven by minimal promoter linked to 5 concatamerized GAL4 binding sites (UAS) was co-transfected at 100 ng/well. As a positive control, the reporter was also co-transfected with a plasmid encoding GAL4-CREB fusion protein (Stratagene) alone or in the presence of pFC-PKA an expression construct encoding catalytic subunit of protein kinase A (Stratagene) to activate the CREB kinase inducible activation domain. Fold induction was compared to the reporter's activity measured in the cells transfected with pCMV-BD an expression vector carrying GAL4 DNA binding domain only.\nExpression constructs encoding full length CREAP1, CREAP2 and CREAP3 as well as a Gal4 DNA binding domain alone or fused with C-terminal portions of CREAP1, CREAP2 and CREAP3 were tested for the ability to induce expression of a luciferase gene controled by a minimal promoter linked to GAL4 DNA binding sites (pFRLuciferase). The data shown are normalized to the value seen with pCMV-BD vector co-transfected with pFR-Luc reporter."}, "[2]": {"biological_target": "T1, ATF2-GAL4 fusion molecule (Homo sapiens, UniProt P15336)", "T1 construct": "host or cells: HLR cell line (5x GAL4 element-luciferase reporter)", "T1 sequence (P15336 with tags, fused parts or gaps limits assumed)": "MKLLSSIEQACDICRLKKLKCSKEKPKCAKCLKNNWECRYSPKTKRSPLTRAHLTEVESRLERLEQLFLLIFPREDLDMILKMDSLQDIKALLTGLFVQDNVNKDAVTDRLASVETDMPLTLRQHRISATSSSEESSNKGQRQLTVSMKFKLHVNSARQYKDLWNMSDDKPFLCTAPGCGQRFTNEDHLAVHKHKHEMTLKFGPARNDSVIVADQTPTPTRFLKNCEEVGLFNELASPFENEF", "test": "In vivo kinase assay, ATF2-GAL4 fusion in HLR cells", "assay_type": "cell-based", "conditions": "40 hours after transfection", "protocol": "For in vivo kinase assay, activation domains of CREB or ATF2 transcription factors fused with the yeast GAL4 DNA binding domain (1-147 Amino Acids) constructs are used (Stratagene, PathDetect In Vivo Signal Transduction Pathway trans-reporting Systems). The HLR cell line that contains a 5× GAL4 DNA binding element and TATA box driving luciferase reporter is used per manufacturer's protocol (Stratagene). 10^4 HLR cells are split into each well of 96 well tissue culture plates. After 16 hours, cells are transfected with 100 ng of Creb-GAL4 or ATF2-GAL4 fusion constructs, 30 ng of Renilla luciferase control plasmid together with 100 ng of pCMVSPORT6, pCMVSPORT-CREAP1, pFC-PKA or pFC-MEKK (Stratagene) activator plasmids respectively. Transfection is done with Fugene6 reagent (Roche Molecular Biochemicals, Basel, Switzerland) according to the manufacturers manual. Forty hours after transfection, a Dual-Glo Luciferase assay (Promega) is conducted using the manufacturer's protocol.\nAs CREAP1 strongly activates CRE promoter transcription, we next investigated whether CREAP1 works through the CREB pathway. […]"}},
  "data": [
    {"molecule": "CREAP1: human CRE activating protein 1, 650 amino acids, SEQ ID NO 2; expressed from pCMVSPORT-CREAP1 (protein, human) MATSNNPRKFSEKIALHNQKQAEETAAFEEVMKDLSLTRAARLQLQKSQYLQLGPSRGQYYGGSLPNVNQIGSGTMDLPFQPSGFLGEALAAAPVSLTPFQSSGLDTSRTTRHHGLVDRVYRERGRLGSPHRRPLSVDKHGRQADSCPYGTMYLSPPADTSWRRTNSDSALHQSTMTPTQPESFSSGSQDVHQKRVLLLTVPGMEETTSEADKNLSKQAWDTKKTGSRPKSCEVPGINIFPSADQENTTALIPATHNTGGSLPDLTNIHFPSPLPTPLDPEEPTFPALSSSSSTGNLAANLTHLGIGGAGQGMSTPGSSPQHRPAGVSPLSLSTEARRQQASPTLSPLSPITQAVAMDALSLEQQLPYAFFTQAGSQQPPPQPQPPPPPPPASQQPPPPPPPQAPVRLPPGGPLLPSASLTRGPQPPPLAVTVPSSLPQSPPENPGQPSMGIDIASAPALQQYRTSAGSPANQSPTSPVSNQGFSPGSSPQHTSTLGSVFGDAYYEQQMAARQANALSHQLEQFNMMENAISSSSLYSPGSTLNYSQAAMMGLTGSHGSLPDSQQLGYASHSGIPNIILTVTGESPPSLSKELTSSLAGVGDVSFDSDSQFPLDELKIDPLTLDGLHMLNDPDMVLADPATEDTFRMDRL", "values": [
      {"measurement": "Fold Induction", "setting": "[1]", "result": 2.468},
      {"measurement": "activation of the ATF2-GAL4 fusion molecule", "setting": "[2]", "result": "unable to activate"}
    ]}
  ]
}
